Assay results from patent publication US8535662B2, “Apyrase therapy for bleeding conditions” (Apt Therapeutics, Inc., priority 2010, dated 2013).

Assays:
[1] = Pharmacokinetic study in rabbits, single IV bolus (serum ADPase and ATPase activities); type: in vivo, rabbit
Method: Pharmacokinetic studies of apyrase agent (sol CD39L3 R67G T69R) were conducted in rabbits where a single bolus was injected intravenously. At various time points (10 min to 24 h after injection), rabbits were bled by cardiac puncture and serum was prepared. Serum samples were examined for both ADPase and ATPase activities.

[2] = tested on: ADP-induced platelet aggregation; experiment: Ex vivo ADP-induced platelet aggregation in platelet-rich plasma after dosing rabbits; set-up: species or system rabbit
Source text: Blood samples taken at various time points were heparinized.
Data are presented as relative light transmission versus time.

[3] = tested on: pigs, coronary injury with stenting; experiment: Coronary injury (balloon overstretch) and bare metal stent in pigs: platelet accumulation and luminal stenosis (Example 6); type: in vivo, pig; conditions: 30 days after stenting, six measurements in two pigs
Method: Coronary injury with or without stenting in pigs is regarded as the best preclinical model for simulation of human angioplasty (Touchard, A. G., et al., Thromb. Res. (2007) 120:477-484). One coronary artery was injured by balloon overstretch in each pig and the site of injury including some overlap with the non-injured vessel was covered with a single bare metal stent (BMS).
Accumulation of ^111In-labeled autologous platelets on the stents over the first 24 h was measured in 4/6 pigs in each group. Radiolabeled platelets were injected 15 min before the coronary catheterization and the hearts perfusion-fixed after 24 h to obtain the stented vessel segment for counting radiolabeled platelets.

[4] = tested on: Fischer 344 rats, lung isograft; experiment: Orthotopic left lung transplantation in rats after 18 hours of cold preservation, ischemia-reperfusion injury (Example 9); type: in vivo, rat; conditions: for TUNEL positive EC per 400× field: 4 hours after reperfusion, 0.66 mg/kg, N=7/group
Method: Fischer 344 rats (Harlan Sprague Dawley, Inc, Indianapolis, Ind.), weighing 250 to 300 grams, were subjected to orthotopic left lung transplantation.
The cuff technique (Robson, S. C., et al., Semin. Thromb. Hemost. (2005) 31:217 was used. In brief, after general anesthesia with intraperitoneal pentobarbital (65 mg/kg), mechanical ventilation, systemic heparinization (300 units), and median laparosternotomy, donor rat lungs were flushed through the main pulmonary artery with 20 mL of cold (4° C.) low-potassium dextran glucose solution at 20 cm H2O pressure. In apyrase agent-treated groups, 0.1 mg/L apyrase agent was added to the cold preservation medium. The heart-lung block was then removed with the lungs inflated at end-tidal volume. The left lung graft was isolated, prepared, and stored in low-potassium dextran glucose at 4° C. until transplantation. After 18 hours of cold preservation, recipient animals were anesthetized, intubated with a 14-gauge catheter, and underwent a left thoracotomy. The pulmonary vessels and bronchus were anastomosed with a standard cuff technique. In the sham group, the rats underwent anesthesia and thoracotomy alone. In apyrase agent-treated groups recipients received treatment intravenously through the internal jugular vein 7 minutes after graft reperfusion. In dose response studies apyrase agent was administered at a dose of either 0.07, 0.22 or 0.66 mg/kg of recipient weight. In all other studies apyrase agent was administered at a dose of 0.66 mg/kg of recipient weight. In the vehicle-treated groups, rats received a saline bolus 7 minutes after reperfusion.
The function of the left lung was assessed 4 hours after transplantation. Rats in each group were reanesthetized with pentobarbital. After tracheostomy, the animals were mechanically ventilated with 100% oxygen and a laparosternotomy was performed. The right hilar structures were clamped to isolate the left lung graft. The animals were ventilated for 5 minutes at a tidal volume of 1.5 mL, a respiratory rate of 100 breaths/min, and 1.0 cm H2O of positive end-expiratory pressure. Arterial blood gas analysis was performed with blood samples obtained from the ascending aorta. The lungs were flushed with 20 mL of cold (4° C.) saline solution, and the lung graft was excised and divided into 3 separate sections. The upper and middle sections were snap frozen. The upper section was used for enzyme-linked immunosorbent assay (ELISA) and the middle section was used for myeloperoxidase (MPO) assay. The lower section was weighed, dried at 70° C. for 48 hours, and then reweighed for calculation of the wet/dry (W/D) ratio.
Quantitative MPO activity was determined also previously described (Krawisz, J. E., et al., Gastroenterology (1984) 87:1344). Optical density was measured at 460 nm with a spectrophotometer (model PMQ II; Carl Zeiss, Oberkochen, Germany). Color development was linear from 5 minutes to 20 minutes. One unit of enzyme activity was defined as 1.0 optical density unit per minute per milligram of tissue protein at room temperature.
Proinflammatory cytokine and chemokine measurement was made on lung samples which were homogenized with T-PER Extraction Reagent (Pierce, Rockford, Ill.). Lung homogenates were centrifuged twice at 10,000 rpm at 4° C. for 5 min, and the supernatants were collected. The content of tumor necrosis factor-α (TNF-α, interleukin-1β (IL-1β) and macrophage inflammatory protein-2 (MIP-2) were determined by using ELISA kits (BioSource International, Inc, Camarillo, Calif.) in accordance with manufacturer's instructions.
For TUNEL assay, lung specimens harvested 4 hours after reperfusion were perfused with 20 mL isotonic sodium chloride solution and inflation fixed with 20 mL HistoChoice (Amresco Inc, Solon, Ohio). Specimens were cut, mounted, de-paraffinized, and then steam-treated with Dako target retrieval solution (Dako, Carpentaria, Calif.) and quenched with 3% hydrogen peroxide. […]

F344 rats, lung graft = experiment: Airway administration of apyrase agent after rat lung graft (Example 10); type: in vivo; conditions: for PaO2: saline about 200; for neutrophil accumulation in lung graft airways: saline control 12×10^2
Method: F344 rat lung grafts were flushed and cold preserved in Apyrase agent solution (0.2 mg/L) and engrafted into syngeneic F344 recipients.
At 5 minutes post-reperfusion 1 ml apyrase agent solution (1 mg/kg) (N=6) or an equivalent volume of saline carrier was administered to the trachea at approximately 5 minutes post-reperfusion (N=7). In additional group of lung graft recipients that were treated with apyrase agent intratracheally, apyrase agent was also administered intravenously at 7 minutes post-reperfusion at 0.66 mg/kg (N=9). Lung graft oxygenation, airway cellularity and airway granulocyte numbers were measured 4 hours post-reperfusion. We noted no gross pulmonary hematomas in any treatment groups.

[5] = tested on: pigs, coronary injury with stenting; conditions: pig, in vivo

B1: sol CD39L3 R67G T69R (protein)
chain: EVLPPGLKYGIVLDAGSSGTRVYVYQWPAEKENNTGVVSQTFKCSVKGSGISSYGNNPQDVPRAFEECMQKVKGQVPSHLHGSTPIHLGATAGMRLLRLQNETAANEVLESIQSYFKSQPFDFRGAQIISGQEEGVYGWITANYLMGNFLEKNLWHMWVHPHGVETTGALDLGGASTQISFVAGEKMDLNTSDIMQVSLYGYVYTLYTHSFQCYGRNEAEKKFLAMLLQNSPTKNHLTNPCYPRDYSISFTMGHVFDSLCTVDQRPESYNPNDVITFEGTGDPSLCKEKVASIFDFKACHDQETCSFDGVYQPKIKGPFVAFAGFYYTASALNLSGSFSLDTFNSSTWNFCSQNWSQLPLLLPKFDEVYARSYCFSANYIYHLFVNGYKFTEETWPQIHFEKEVGNSSIAWSLGYMLSLTNQIPAESPLIRLPIEPPV
modifications: glycosylated; synthetically constructed apyrase
For B1, the “half life in the circulation” value [1] was “approximately 24 h”, the “inhibition of ADP-induced platelet aggregation” value ([2]; 0.75 mg/kg IV single bolus, 10 mM ADP) was “more than 95%” and the “inhibition of ADP-induced platelet aggregation” value ([2]; 0.75 mg/kg IV, 6 h after dosing) was 70%. The “time point after dosing at which strong effects were observed (onset of antiplatelet action)” value ([2]; apyrase agent 0.75 mg/kg IV) was 5 min, the average luminal stenosis [3] was 19.8±2% and the “pulmonary edema (wet to dry weight ratio)” value ([4]; 0.22 mg/kg IV, 4 hours) was “trended to lower mean levels”. For the same molecule, the “lung function (arterial PO2) compared to saline-treated recipients” value ([4]; 0.22 mg/kg IV, 4 hours after transplantation) was “trend towards better lung function”, the “lung graft histopathology (hematoxylin and eosin) compared to saline-treated recipients” value ([4]; 0.66 mg/kg IV 7 minutes after reperfusion) was “less apparent alveolar hemorrhage and microvascular injury” and the “pulmonary edema (wet to dry weight ratio)” value ([4]; 0.66 mg/kg IV, 4 hours) was “significantly attenuated”. The “lung function (arterial PO2) compared to saline-treated recipients” value ([4]; 0.66 mg/kg IV, 4 hours after transplantation) was “significant improvement”, the “MPO activity in lung grafts” value ([4]; 4 hours) was “reduced” and the “expression of E-selectin on endothelial cells” value ([4]; 4 hours) was “reduced”. For the same molecule, the “ADP concentration in the BAL fluid relative to saline-treated recipients” value ([4]; 4 hours after engraftment) was “significantly lower concentrations”, the “ATP concentration in the BAL fluid relative to saline-treated recipients” value ([4]; 4 hours after engraftment) was “significantly lower concentrations” and the “TUNEL positive EC per 400× field” value [4] was “significantly fewer apoptotic EC”. The “TUNEL positive EC per 400× field” value ([4]; listed as apyrase) was “three”, the “numbers of neutrophils recovered from the airways” value ([4]; 4 hours after transplantation) was “significant decrease” and the “total cells in the BAL” value ([4]; 4 hours after transplantation) was “significantly fewer cells”. The “intragraft level of TNFa (ELISA)” value ([4]; 4 hrs of reperfusion, saline about 75) was “about 35 pg/mg”, the “intragraft level of MIP-2 (ELISA)” value ([4]; 4 hrs of reperfusion, saline about 1,800) was “about 1,300 pg/mg” and the “intragraft level of IL-1β (ELISA)” value ([4]; 4 hrs of reperfusion, saline about 2,200) was “about 1,100 pg/mg”. The PaO2 (F344 rats, lung graft; IT 1 mg/kg and IV 0.66 mg/kg, 4 hours post-reperfusion) was roughly 320 mm Hg, the “reduction of neutrophils in the airway” value (F344 rats, lung graft; airway administration, 4 hours post-reperfusion) was “over 50%” and the “neutrophil accumulation in lung graft airways” value (F344 rats, lung graft; airway alone) was 5×10^2 neutrophils. For the same molecule, the “neutrophil accumulation in lung graft airways” value (F344 rats, lung graft; airway and IV) was 3×10^2 neutrophils, the PaO2 (F344 rats, lung graft; intratracheally (IT) 1 mg/kg, 4 hours post-reperfusion) was “about 300 mm Hg” and the “blood loss from a standardized incision of the abdominal wall” value [5] was “not increased”.
